Measurements from patent US8026218 (UNIVERSITY OF ARIZONA, dated 2011).
Like-named read-outs stand apart in the source and are kept apart here. Bridge positions count the residues as written; N and C are the ends. Square brackets hold non-standard residues; d marks the D form. Ends that are not written are not given here. * marks the point of attachment. NH(3,5-(CF3)2-benzyl) = FC(F)(F)c1cc(CN*)cc(C(F)(F)F)c1; OBzl(3,5-(CF3)2) = FC(F)(F)c1cc(CO*)cc(C(F)(F)F)c1; Dmt = Cc1cc(O)cc(C)c1C[C@H](N)C(=O)O; Met(O) = CS(=O)CC[C@H](N)C(=O)O; NMe(benzyl) = CN(Cc1ccccc1)*; Abu = CC[C@H](N)C(=O)O; NHBn = c1ccc(CN*)cc1; OBn = c1ccc(CO*)cc1

Assays:
[1] = target: T1, rat NK1 receptor (rat, UniProt P14600 1-407); test: competition vs [3H]substance P, membranes of rNK1-transfected CHO cells
T1 construct: whole, on cells; Assayed as membrane preparations of transfected CHO cells; also called rNK1; rNK-1
T1 sequence (P14600 whole entry): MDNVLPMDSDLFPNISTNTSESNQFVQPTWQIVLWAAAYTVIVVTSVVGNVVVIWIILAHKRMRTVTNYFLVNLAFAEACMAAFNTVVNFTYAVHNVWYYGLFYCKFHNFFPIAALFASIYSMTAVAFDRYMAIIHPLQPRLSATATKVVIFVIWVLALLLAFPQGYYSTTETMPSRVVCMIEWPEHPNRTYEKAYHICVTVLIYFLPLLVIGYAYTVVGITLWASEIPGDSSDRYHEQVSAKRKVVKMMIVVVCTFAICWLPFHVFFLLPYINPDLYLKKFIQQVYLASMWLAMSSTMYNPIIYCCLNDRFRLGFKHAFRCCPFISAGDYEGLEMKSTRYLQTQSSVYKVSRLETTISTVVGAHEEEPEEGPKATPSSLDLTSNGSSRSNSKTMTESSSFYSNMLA

[2] = target: T2, human δ opioid receptor (human, UniProt P41143 1-372); test: cell-based or functional assay
T2 sequence (P41143 whole entry, stated change not applied): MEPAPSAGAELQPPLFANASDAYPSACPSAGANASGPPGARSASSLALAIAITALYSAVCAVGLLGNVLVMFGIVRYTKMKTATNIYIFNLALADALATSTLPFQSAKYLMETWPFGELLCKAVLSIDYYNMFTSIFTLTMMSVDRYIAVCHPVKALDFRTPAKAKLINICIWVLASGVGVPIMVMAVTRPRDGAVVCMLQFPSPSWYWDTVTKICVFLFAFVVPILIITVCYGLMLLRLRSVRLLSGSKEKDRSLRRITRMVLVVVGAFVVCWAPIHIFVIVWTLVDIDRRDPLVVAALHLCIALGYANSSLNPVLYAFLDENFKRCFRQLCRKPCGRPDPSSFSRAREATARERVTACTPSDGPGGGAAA

[3] = target: T2, human δ opioid receptor; test: competition vs [3H]DPDPE, membranes of hDOR-transfected HN9.10 cells
[4] = target: µ opioid receptor of the guinea pig isolated ileum (guinea pig); test: cell-based or functional assay
[5] = target: guinea pig NK1 receptor (guinea pig, UniProt P30547 1-407); test: cell-based or functional assay
Target sequence in this assay (P30547 whole entry): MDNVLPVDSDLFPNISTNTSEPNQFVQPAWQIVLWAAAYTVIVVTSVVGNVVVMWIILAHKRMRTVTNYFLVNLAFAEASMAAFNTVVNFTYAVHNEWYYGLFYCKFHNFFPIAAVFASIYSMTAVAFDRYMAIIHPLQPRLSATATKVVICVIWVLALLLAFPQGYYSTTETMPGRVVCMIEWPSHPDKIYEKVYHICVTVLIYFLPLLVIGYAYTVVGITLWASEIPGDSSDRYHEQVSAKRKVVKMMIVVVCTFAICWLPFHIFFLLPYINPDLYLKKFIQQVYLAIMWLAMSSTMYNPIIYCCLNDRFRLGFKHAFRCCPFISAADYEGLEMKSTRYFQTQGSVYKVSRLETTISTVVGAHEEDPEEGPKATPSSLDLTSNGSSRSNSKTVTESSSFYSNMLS

[6] = target: T3, rat NK1 receptor (rat, UniProt P14600 1-407); test: radioligand competition vs [3H]substance P, membranes of rNK1 CHO cells
T3 construct: whole, on cells; Used as membrane preparations of transfected CHO cells; also called rNK1; rat neurokinin-1 receptor
T3 sequence (P14600 whole entry): as the sequence (P14600 whole entry) above

[7] = target: T4, human NK1 receptor (human, UniProt P25103 1-407); test: radioligand competition vs [3H]substance P, membranes of hNK1 CHO cells
T4 construct: whole, on cells; Used as membrane preparations of transfected CHO cells; also called hNK1; human neurokinin-1 receptor
T4 sequence (P25103 whole entry): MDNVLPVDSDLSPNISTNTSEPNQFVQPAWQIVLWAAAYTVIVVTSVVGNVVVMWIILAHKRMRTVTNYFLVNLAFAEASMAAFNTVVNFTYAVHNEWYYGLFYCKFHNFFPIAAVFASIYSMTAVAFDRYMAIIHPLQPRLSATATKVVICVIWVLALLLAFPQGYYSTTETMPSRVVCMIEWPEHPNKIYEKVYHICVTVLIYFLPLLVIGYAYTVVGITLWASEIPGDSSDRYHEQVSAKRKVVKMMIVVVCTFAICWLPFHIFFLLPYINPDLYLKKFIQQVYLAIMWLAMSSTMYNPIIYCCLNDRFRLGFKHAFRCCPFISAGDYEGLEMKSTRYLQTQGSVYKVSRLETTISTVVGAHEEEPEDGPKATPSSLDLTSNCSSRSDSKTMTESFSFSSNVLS

[8] = target: T5, rat µ opioid receptor (rat, UniProt P33535 1-398); test: radioligand competition vs [3H]DAMGO, membranes of rMOR cells
T5 construct: whole, on cells; Used as crude membrane preparations of the transfected cells; also called rMOR; MOR
T5 sequence (P33535 whole entry): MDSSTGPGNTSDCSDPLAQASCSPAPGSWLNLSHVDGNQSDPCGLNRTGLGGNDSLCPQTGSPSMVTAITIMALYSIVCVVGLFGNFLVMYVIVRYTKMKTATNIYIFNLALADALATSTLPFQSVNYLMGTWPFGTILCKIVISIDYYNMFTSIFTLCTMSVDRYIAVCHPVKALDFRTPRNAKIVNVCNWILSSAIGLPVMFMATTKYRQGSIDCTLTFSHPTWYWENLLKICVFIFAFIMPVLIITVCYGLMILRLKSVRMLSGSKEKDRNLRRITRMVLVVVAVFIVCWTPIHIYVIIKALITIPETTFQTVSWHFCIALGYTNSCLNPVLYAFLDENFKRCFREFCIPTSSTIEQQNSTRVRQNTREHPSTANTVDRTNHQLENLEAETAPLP

[9] = target: T6, human δ opioid receptor (human, UniProt P41143 1-372); test: radioligand competition vs [3H]DPDPE, membranes of hDOR cells
T6 construct: whole, on cells; Used as crude membrane preparations of the transfected cells; also called hDOR; DOR
T6 sequence (P41143 whole entry, stated change not applied): as the sequence (P41143 whole entry, stated change not applied) above

[10] = target: T6, human δ opioid receptor; test: cell-based or functional assay; remark: listed apart in the source
[11] = target: T5, rat µ opioid receptor; test: cell-based or functional assay
[12] = target: guinea pig NK1 receptor (guinea pig, UniProt P30547 1-407); test: cell-based or functional assay; remark: listed apart in the source
Target sequence in this assay (P30547 whole entry): as the sequence (P30547 whole entry) above

[13] = target: µ opioid receptor of the guinea pig isolated ileum (guinea pig, UniProt P97266 1-98); test: cell-based or functional assay
Target sequence in this assay (P97266 whole entry): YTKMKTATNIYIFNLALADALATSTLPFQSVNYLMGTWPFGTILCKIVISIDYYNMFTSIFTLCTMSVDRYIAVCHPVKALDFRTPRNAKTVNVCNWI

[14] = target: T7, human NK1 receptor (human, UniProt P25103 1-407); test: competition vs [3H]substance P, membranes of hNK1-transfected CHO cells
T7 construct: whole, on cells; Assayed as membrane preparations of transfected CHO cells; also called hNK1; human neurokinin-1 receptor
T7 sequence (P25103 whole entry): as the sequence (P25103 whole entry) above

[15] = target: T1, rat NK1 receptor; test: competition vs [3H]substance P, membranes of rNK1-transfected CHO cells; remark: listed apart in the source
[16] = target: T8, rat NK1 receptor (rat, UniProt P14600 1-407); test: competition vs [3H]Substance P, rNK1 CHO cell membranes
T8 construct: whole, on cells; membrane preparations of the transfected cells were used; also called rNK1; rNK-1
T8 sequence (P14600 whole entry): as the sequence (P14600 whole entry) above

[17] = target: T9, rat µ opioid receptor (rat, UniProt P33535 1-398); test: competition vs [3H]DAMGO, rMOR cell membranes
T9 construct: whole, on cells; membrane preparations of the transfected cells were used; also called rMOR; MOR
T9 sequence (P33535 whole entry): as the sequence (P33535 whole entry) above

[18] = target: T10, human δ opioid receptor (human, UniProt P41143 1-372); test: competition vs [3H]DPDPE, hDOR cell membranes
T10 construct: whole, on cells; membrane preparations of the transfected cells were used; also called hDOR; DOR
T10 sequence (P41143 whole entry, stated change not applied): as the sequence (P41143 whole entry, stated change not applied) above

[19] = target: T8, rat NK1 receptor; test: competition vs [3H]Substance P, rNK1 CHO cell membranes; remark: listed apart in the source
[20] = target: T10, human δ opioid receptor; test: cell-based or functional assay; remark: listed apart in the source
[21] = target: T9, rat µ opioid receptor; test: cell-based or functional assay; remark: listed apart in the source
[22] = target: T10, human δ opioid receptor; test: competition vs [3H]DPDPE, hDOR cell membranes; remark: listed apart in the source
[23] = target: T10, human δ opioid receptor; test: cell-based or functional assay; remark: listed apart in the source
[24] = target: µ opioid receptor of the guinea pig isolated ileum (guinea pig, UniProt P97266 1-98); test: cell-based or functional assay; remark: listed apart in the source
Target sequence in this assay (P97266 whole entry): as the sequence (P97266 whole entry) above

[25] = target: guinea pig NK1 receptor (guinea pig, UniProt P30547 1-407); test: cell-based or functional assay; remark: listed apart in the source
Target sequence in this assay (P30547 whole entry): as the sequence (P30547 whole entry) above

[26] = target: T11, human NK1 receptor (human, UniProt P25103 1-407); test: competition vs [3H]Substance P, hNK1 CHO cell membranes
T11 construct: whole, on cells; membrane preparations of the transfected cells were used; also called hNK1; human neurokinin-1 receptor
T11 sequence (P25103 whole entry): as the sequence (P25103 whole entry) above

[27] = target: T10, human δ opioid receptor; test: competition vs [3H]DPDPE, hDOR cell membranes; remark: listed apart in the source
[28] = target: T10, human δ opioid receptor; test: cell-based or functional assay; remark: listed apart in the source
[29] = target: T9, rat µ opioid receptor; test: cell-based or functional assay; remark: listed apart in the source
[30] = target: T8, rat NK1 receptor; test: competition vs [3H]Substance P, rNK1 CHO cell membranes; remark: listed apart in the source
[31] = target: T9, rat µ opioid receptor; test: competition vs [3H]DAMGO, rMOR cell membranes; remark: listed apart in the source
[32] = target: T12, rat µ opioid receptor (rat, UniProt P33535 1-398); test: cell-based or functional assay; remark: listed apart in the source
T12 sequence (P33535 whole entry): as the sequence (P33535 whole entry) above

[33] = target: T12, rat µ opioid receptor; test: competition vs [3H]DAMGO, membranes of rMOR-transfected HN9.10 cells

H-Y[dA]GF[Met(O)]PLW-{OBzl(3,5-(CF3)2)} (also: TFA salt, TFA salt; also called TY023) [H-Tyr-D-Ala-Gly-Phe-Met(O)-Pro-Leu-Trp-O-3,5-Bzl(CF3)2]
IC50 [1]: 54.5 nM
LogIC50 [1]: -7.27
[35S]GTP-γ-S binding Emax [2]: 53%
[35S]GTP-γ-S binding LogEC50 [2]: -8.73
Ki [3]: 4.8 nM
LogIC50 [3]: -7.92
GPI (µ) opioid agonist IC50 [4]: 154 nM
Substance P GPI antagonist Ke [5]: 7.8 nM

[Dmt][dA]GFMPLW-NHBn [DmtDAlaGlyPheMetProLeuTrpNHBn (TY034)]
Ki [6]: 317 nM
Ki [7]: 2.39 nM
Ki [8]: 0.14 nM
Ki [9]: 0.1 nM
GTP binding hDOR EC50 [10]: 0.3 nM
GTP binding rMOR EC50 [11]: 0.4 nM
GPI/LMMP SP antagonist Ke [12]: 36.9 nM
GPI/LMMP opioid(mu) agonist IC50 [13]: 11.4 nM

H-Y[dA]GFPLW-OBn (also: TFA salt, TFA salt; also called TY011) [H-Tyr-DAla-Gly-Phe-Pro-Leu-Trp-O-Bzl]
Ki [14]: 100 nM
LogIC50 [14]: -6.7
Ki [15]: 270 nM
LogIC50 [15]: -6.1

Y[dA]GFPLW-{OBzl(3,5-(CF3)2)} (also called TY001) [TyrDAlaGlyPheProLeuTrpOBn(CF3)2]
IC50 [16]: 21.7 nM

H-Y[dA]GFPLW-{NMe(benzyl)} (also: TFA salt, TFA salt; also called TY010) [H-Tyr-D-Ala-Gly-Phe-Pro-Leu-Trp-NMe-Bzl]
Ki [14]: 1.6 nM
LogIC50 [14]: -8.5

B1: Tyr[DCysGlyPheCys]ProLeuTrpNHBn(CF3)2 (peptide)
peptide: Y[dC]GFCPLW-{NH(3,5-(CF3)2-benzyl)}
modifications: disulfide 2-5
notes: cyclic; also called TY039; [D-Cys2, Cys5]TY027
Ki [17]: 200 nM
LogIC50 [17]: -6.4
Ki [18]: 11 nM
LogIC50 [18]: -7.6
LogIC50 [19]: -5.8
[35S]GTPγS binding EC50 [20]: 0.9 nM
[35S]GTPγS binding Emax [20]: 37%
[35S]GTPγS binding LogEC50 [20]: -9
[35S]GTPγS binding EC50 [21]: 118 nM
[35S]GTPγS binding Emax [21]: 17%
[35S]GTPγS binding LogEC50 [21]: -6.9

YAGFXPLW (D-Ala at 2; Nle at 5 (written X); C-terminal O-3,5-Bzl(CF3)2 ester, also called TY018) [TyrDAlaGlyPheNleProLeuTrpOBn(CF3)2]
Ki [22]: 1.8 nM
GTP binding EC50 [23]: 4 nM
GTP binding Emax [23]: 131%
GPI/LMMP IC50 [24]: 372 nM
GPI/LMMP SP antagonist Ke [25]: 7.9 nM

YAGFMPLW (D-Ala at 2; Met(O) at 5; C-terminal O-3,5-Bzl(CF3)2 ester, also called TY023) [TyrDAlaGlyPheMet(O)ProLeuTrpOBn(CF3)2]
Ki [22]: 5.1 nM
GTP binding Emax [23]: 52.8%
GPI/LMMP IC50 [24]: 154 nM
GPI/LMMP SP antagonist Ke [25]: 7.8 nM
IC50 [16]: 54.5 nM

H-Y[dA]GFPLW-NHBn (also: TFA salt, TFA salt; also called TY008) [H-Tyr-DAla-Gly-Phe-Pro-Leu-Trp-NH-Bzl]
Ki [14]: 14 nM

Y[dA]GF[Abu]W-{O‑Bzl(CF3)2} (also called NP33) [Tyr-DAla-Gly-Phe-α-Abu-Trp-O-Bzl(CF3)2]
Ki [26]: 0.12 nM
Ki [27]: 1.6 nM
GTP EMax [28]: 43
GTP EMax [29]: 32
Ki [30]: 1.2 nM
Ki [31]: 11.4 nM

H-Y[dA]GFLPLW-{OBzl(3,5-(CF3)2)} (also: TFA salt, TFA salt; also called TY004) [H-Tyr-D-Ala-Gly-Phe-Leu-Pro-Leu-Trp-O-3,5-Bzl(CF3)2]
IC50 [1]: 20.9 nM
LogIC50 [1]: -7.7
[35S]GTP-γ-S binding Emax [32]: 46%
[35S]GTP-γ-S binding EC50 [2]: 9.6 nM
[35S]GTP-γ-S binding Emax [2]: 44%
[35S]GTP-γ-S binding LogEC50 [2]: -8.09
Ki [33]: 23.3 nM
Ki [3]: 5 nM
LogIC50 [3]: -7.97
GPI (µ) opioid agonist IC50 [4]: 341 nM
Substance P GPI antagonist Ke [5]: 19.4 nM
